Test [1] deals with T1, mouse Fcγ receptor III extracellular domain with C-terminal His tag (mouse, UniProt P08508 31-215).
T1 construct: extracellular domain; also called mFcγRIII; not shown: His tag at the C terminus
T1 sequence (looked up): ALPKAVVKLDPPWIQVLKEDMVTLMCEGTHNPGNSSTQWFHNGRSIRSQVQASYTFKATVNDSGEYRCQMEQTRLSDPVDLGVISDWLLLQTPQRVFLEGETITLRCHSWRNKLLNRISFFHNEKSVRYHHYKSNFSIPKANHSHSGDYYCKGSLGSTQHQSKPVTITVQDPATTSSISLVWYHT
The test is described as follows: SPR (Biacore); against naturally-occurring mIgG1 (H237-mIgG1/MRAL-k0). Background: In SPR one partner is held on a chip, and binding of the other changes the refractive index at the surface.

Test [2] concerns the target T2, mouse Fcγ receptor II extracellular domain with C-terminal His tag (mouse, UniProt P08101 30-210).
T2 construct: extracellular domain; also called mFcγRII; mFcgRII; not shown: His tag at the C terminus
T2 sequence (looked up): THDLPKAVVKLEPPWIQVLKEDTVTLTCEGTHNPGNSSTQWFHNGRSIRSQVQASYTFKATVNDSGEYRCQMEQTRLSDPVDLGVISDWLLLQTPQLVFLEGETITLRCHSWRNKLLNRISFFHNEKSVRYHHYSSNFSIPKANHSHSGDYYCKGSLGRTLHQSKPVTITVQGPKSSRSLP
The test is described as above.

Test [3] deals with T1, mouse Fcγ receptor III extracellular …. The test is described as follows: SPR (Biacore) kinetics, antibody captured on Protein L, mFcγR as analyte, 1:1 Langmuir model.
Description: (§1) The ion exchange column chromatography of step 1 was carried out using Q Sepharose HP for mFcγRI, using SP Sepharose FF for mFcγRII and mFcγRIV, and using SP Sepharose HP for mFcγRIII. While the solvent used in step 3 and the subsequent step was D-PBS(−), D-PBS(−) containing 0.1 M Arginine was used for mFcγRIII. The absorbance at 280 nm was measured for the purified proteins using a spectrophotometer. […] The interaction between each modified antibody and the Fcγ receptor prepared as mentioned above was analyzed using Biacore T100 (GE Healthcare), Biacore T200 (GE Healthcare), Biacore A100, and Biacore 4000. The running buffer used was HBS-EP+(GE Healthcare) and the measurement temperature was set to 25° C. The chip used was: a Series S Sensor Chip CM5 (GE Healthcare) or Series S Sensor Chip CM4 (GE Healthcare) to which Protein L (ACTIGEN or BioVision) was immobilized by the amine coupling method. Antibodies of interest were captured onto these sensor chips, and mFcγR diluted with the running buffer was allowed to interact with them. The amount bound by the antibodies was measured and compared between the antibodies. However, since the amount of mFcγR bound depends on the amount of the captured antibody, the comparison was carried out on corrected values obtained by dividing the amount of bound mFcγR by the amount of each antibody captured. Furthermore, 10 mM glycine-HCl, pH 1.5 was reacted to wash out the captured antibody from the sensor chips, and the sensor chip was regenerated and used repeatedly. Kinetic analyses for calculating the KD values of each altered antibody to FcγR were performed according to the method below. First, antibodies of interest were captured onto the above-mentioned sensor chips, and mFcγR diluted with the running buffer was allowed to interact with them. […] From those values, the dissociation constant KD (mol/L) was determined.
For test [4], the target named is T2, mouse Fcγ receptor II extracellular …. The description is as above.
Description: as §1

B1: H237-MB492/MRAL-k0 (antibody, mouse IgG1, kappa)
heavy: QVQLQESGPGLVKPSETLSLTCAVSGHSISHDHAWSWVRQPPGEGLEWIGFISYSGITNYNPSLQGRVTISRDNSKNTLYLQMNSLRAEDTAVYYCARSLARTTAMDYWGEGTLVTVSSAKTTPPSVYPLAPGSAAQTNSMVTLGCLVKGYFPEPVTVTWNSGSLSSGVHTFPAVLQSDLYTLSSSVTVPSSTWPSETVTCNVAHPASSTKVDKKIVPRDCGCKPCICEPNEVEDVFIFPPKPKDVLTITLTPKVTCVVVDISKDDPEVQFSWFVDDVEVHTAQTQPREEQFNSTFRSVSELPIMHQDWLNGKEFKCRVDSAAFPAPIEKTISKTKGRPKAPQVYTIPPPKEQMAKDKVSLTCMITDFFPEDITVEWQWNGQPAENYKNTQPIMDTDGSYFVYSKLNVQKSNWEAGNTFTCSVLHEGLHNHHTEKSLSHSPGK
light: not shown
notes: Mouse IgG1 constant region variant MB492 (T230E, V231P, P232N, S238E, S239D, N324D, as described for 1D8VH-MB492); copies: 2 + 2
In general, Kd refers to the concentration at which binding is half-saturated. As to B1, the results for the Relative binding activity in test [1] and in test [2] were 10.9 fold (mIgG1 = 1) and 622 fold (mIgG1 = 1), respectively. Besides, the dissociation constant (Kd) is 25.8 nM in test [3] and 0.338 nM in test [4].

For the origin of these results see US20170022287A1 (Chugai, published 2017).
